# From patent US20250082772A1
# Columns and labels:
# [1] = target: recombinant mouse CD71 (Sino Biological Inc., Beijing, China) (mouse) (UniProt Q62351); assay: plate binding to coated recombinant mouse CD71, Alexa Fluor 488 labeled secondary antibody, fluorescence
# [2] = target: CD71 on primary hepatocytes; assay: cell-based or functional assay
# [3] = target: recombinant mouse CD71 (Sino Biological Inc., Beijing, China) (mouse) (UniProt Q62351); assay: plate binding to coated recombinant mouse CD71, RiboGreen fluorescence detection of the conjugate's siRNA
# [4] = target: recombinant mouse CD71 (Sino Biological Inc., Beijing, China) (mouse) (UniProt Q62351); assay: plate binding to coated recombinant mouse CD71; EC50 of the conjugate against that of clone R17
# Chain of UniProt Q62351 (Q62351 89-763 limits assumed): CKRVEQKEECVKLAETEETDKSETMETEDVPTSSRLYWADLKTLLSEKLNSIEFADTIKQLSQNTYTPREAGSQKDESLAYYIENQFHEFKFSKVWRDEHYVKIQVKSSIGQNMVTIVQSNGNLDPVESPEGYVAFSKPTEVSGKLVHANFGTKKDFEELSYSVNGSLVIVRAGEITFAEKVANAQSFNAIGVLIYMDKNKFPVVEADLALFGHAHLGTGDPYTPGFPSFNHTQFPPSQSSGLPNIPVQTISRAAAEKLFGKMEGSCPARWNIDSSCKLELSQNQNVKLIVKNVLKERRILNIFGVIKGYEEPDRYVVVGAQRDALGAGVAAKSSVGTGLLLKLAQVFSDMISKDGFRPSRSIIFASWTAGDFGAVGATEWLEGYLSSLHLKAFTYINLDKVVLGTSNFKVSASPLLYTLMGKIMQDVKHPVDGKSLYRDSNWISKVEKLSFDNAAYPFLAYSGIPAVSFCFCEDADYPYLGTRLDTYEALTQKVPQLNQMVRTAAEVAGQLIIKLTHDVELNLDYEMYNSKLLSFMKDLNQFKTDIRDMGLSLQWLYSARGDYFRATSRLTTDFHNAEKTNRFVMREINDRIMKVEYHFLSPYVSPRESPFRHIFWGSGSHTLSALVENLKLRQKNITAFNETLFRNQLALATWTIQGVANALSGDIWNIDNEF
substance,measurement,setting,value
anti-CD71 antibody (clone R17 217.1.3) purchased from Bio X Cell,EC50,[1],1.5 nM
clone R17 Fab'-siApoB conjugate linked with the maleimide linker,"EC50 in inhibiting of ApoB gene expression (primary hepatocytes, quantitative PCR)",[2],11 nM
same,"silencing of ApoB at 900 nM (primary hepatocytes, quantitative PCR)",[2],46%
clone R17 Fab'-siHPRT conjugate linked with the maleimide linker,EC50,[3],29 nM
same,fold difference of EC50 between clone R17 and the conjugate,[4],20 fold
